Assay results taken from the supplement of paper PMC10567573.

B1: ZNF649 (parent)
chain: LTEHKRIHTGKKPHVCSLCGKAFY
B2: CD207 (parent)
chain: MTVEKEAPDAHFTVDKQNISLWPR

Variants of: B1
Experiment: protein stability index of a GFP-peptide fusion (GPS, HEK-293T) (PSI 1-6); higher = more stable
Conditions: c terminus: a fixed tail appended
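Further: lentivirally expressed fusions sorted by FACS into six bins by GFP to DsRed ratio, PSI derived from sequencing read proportions per bin multiplied by bin number.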

Protein stability index: each site, then its substitutions
K21: P 2.55; Q 3.8; S 2.44; T 2.78; V 3.11; W 2.15; Y 1.79
A22: C 2.55; D 2.51; E 2.24; F 2.16; G 2.56; H 2.46; I 2.62; K 3.71; L 2.27; M 2.85; N 3.23; P 2.9; Q 2.26; R 3.22; S 2.55; T 3.41; V 2.85; W 2.48
F23: A 2.77; C 3.07; D 3.98; E 3.69; G 2.67; H 4.3; I 2.45; K 3.87; M 2.56; N 2.4; P 3.32; Q 2.3; R 2.69; S 2.97; T 2.32; V 2.32; W 1.52; Y 2.47
Y24: A 2.88; C 3.33; D 3.12; E 2.82; G 3.35; H 3.35; I 1.81; K 3.3; L 3.01; M 2.69; N 1.43; P 3.45; Q 3.04; R 2.42; T 3.42; V 2.33

Variants of: B2
Experiment: as above
Conditions: c terminus: a fixed tail appended

Protein stability index of substitutions, site by site:
M1: A 3.62; C 3.38; D 4.23; E 3.36; F 2.11; G 4.16; H 3.27; I 2.8; K 2.81; L 3.07; N 3.68; P 4.17; Q 3.8; R 3.98; S 3.57; T 3.45; V 3.76; W 3.13; Y 2.37
T2: A 3.35; C 2.54; D 3.62; F 2.71; G 3.68; H 3.08; I 2.94; K 3.65; L 3.17; M 3.86; N 3.36; Q 3.54; R 2.83; S 3.57; V 3.21; W 2.59; Y 2.18
V3: A 3.47; C 2.68; D 4.12; E 3.72; F 2.85; G 3.19; H 3.54; I 3.33; K 3.79; L 3.44; M 3.09; N 3.93; P 4.07; Q 3.42; R 3.9; S 3.55; T 3.57; W 2.86; Y 2.75
E4: A 3.17; C 3.11; D 3.67; F 2.28; G 3.37; H 3; I 2.56; L 2.79; M 3.2; N 2.86; P 3.18; Q 3.92; R 3.02; S 3.68; T 2.77; V 3.38; W 1.99; Y 2.43
K5: A 2.96; C 2.58; D 3.48; E 4.03; F 2.02; G 3.79; H 3.27; I 1.95; L 1.86; M 2.04; N 3.13; P 3.48; R 2.94; S 3.04; T 2.89; V 1.53; W 2.04; Y 1.99
E6: A 3.21; C 2.32; D 3.31; F 2.27; G 3.27; H 2.83; I 2.37; K 3.47; L 2.72; M 2.52; N 3.23; P 3.14; Q 3.25; R 2.74; S 3.01; T 3.08; V 2.05
